The values that follow come from paper PMC13458767, “C-terminal lysine residues localise NLRP10 at lipid droplets and govern NLRP10 oligomer formation” (EMBO Reports, 2026).

Series [1] has as its target human NLRP10ΔHD2–tail (aa 4–482), MBP-tagged recombinant protein (human) (UniProt Q86W26). Nature of the series: SEC-MALS; MBP-NLRP10 (4–482) at several concentrations; molecular weights determined; no methods told for the SEC-MALS. (In general: In gel filtration, larger molecules generally elute earlier.)
Series [2] deals with the molecule itself. Nature of the series: SEC; Superose 6 Increase 10/300 GL or Superdex 200 Increase 10/300 GL; 25 mM Tris pH 7.5, 300 mM NaCl, 5 mM ß-ME, 5% glycerol; peak 1 (void) and peak 2 collected.

Turning to “human NLRP10ΔHD2–tail (aa 4–482), MBP-tagged recombinant protein (from UniProt Q86W26 4-482) (domain or fragment)”, the stoichiometry N in series [1] turned out to be 2.

B1: human NLRP10 (aa 4–655), MBP-tev-tagged recombinant protein (natural protein, UniProt Q86W26 4-655, looked up)
chain: AKARKPREALLWALSDLEENDFKKLKFYLRDMTLSEGQPPLARGELEGLIPVDLAELLISKYGEKEAVKVVLKGLKVMNLLELVDQLSHICLHDYREVYREHVRCLEEWQEAGVNGRYNQVLLVAKPSSESPESLACPFPEQELESVTVEALFDSGEKPSLAPSLVVLQGSAGTGKTTLARKMVLDWATGTLYPGRFDYVFYVSCKEVVLLLESKLEQLLFWCCGDNQAPVTEILRQPERLLFILDGFDELQRPFEEKLKKRGLSPKESLLHLLIRRHTLPTCSLLITTRPLALRNLEPLLKQARHVHILGFSEEERARYFSSYFTDEKQADRAFDIVQKNDILYKACQVPGICWVVCSWLQGQMERGKVVLETPRNSTDIFMAYVSTFLPPDDDGGCSELSRHRVLRSLCSLAAEGIQHQRFLFEEAELRKHNLDGPRLAAFLSSNDYQLGLAIKKFYSFRHISFQDFFHAMSYLVKEDQSRLGKESRREVQRLLEVKEQEGNDEMTLTMQFLLDISKKDSFSNLELKFCFRISPCLAQDLKHFKEQMESMKHNRTWDLEFSLYEAKIKNLVKGIQMNNVSFKIKHSNEKKSQSQNLFSVKSSLSHGPKEEQKCPSVHGQKEGKDNIAGTQKEASTGKGRGTEETPKNTYI
notes: MBP is followed by a tev site; no cleavage step is described in the methods; also called NLRP10 (4–655); wild-type NLRP10
With B1, in series [2], the binding result is on record as “binds”.

B2: Walker A mutant human NLRP10 (aa 4–655 K179A), MBP-tev-tagged recombinant protein (natural protein, UniProt Q86W26 4-655, looked up)
chain: AKARKPREALLWALSDLEENDFKKLKFYLRDMTLSEGQPPLARGELEGLIPVDLAELLISKYGEKEAVKVVLKGLKVMNLLELVDQLSHICLHDYREVYREHVRCLEEWQEAGVNGRYNQVLLVAKPSSESPESLACPFPEQELESVTVEALFDSGEKPSLAPSLVVLQGSAGTGATTLARKMVLDWATGTLYPGRFDYVFYVSCKEVVLLLESKLEQLLFWCCGDNQAPVTEILRQPERLLFILDGFDELQRPFEEKLKKRGLSPKESLLHLLIRRHTLPTCSLLITTRPLALRNLEPLLKQARHVHILGFSEEERARYFSSYFTDEKQADRAFDIVQKNDILYKACQVPGICWVVCSWLQGQMERGKVVLETPRNSTDIFMAYVSTFLPPDDDGGCSELSRHRVLRSLCSLAAEGIQHQRFLFEEAELRKHNLDGPRLAAFLSSNDYQLGLAIKKFYSFRHISFQDFFHAMSYLVKEDQSRLGKESRREVQRLLEVKEQEGNDEMTLTMQFLLDISKKDSFSNLELKFCFRISPCLAQDLKHFKEQMESMKHNRTWDLEFSLYEAKIKNLVKGIQMNNVSFKIKHSNEKKSQSQNLFSVKSSLSHGPKEEQKCPSVHGQKEGKDNIAGTQKEASTGKGRGTEETPKNTYI
notes: NLRP10, human, residues 4-655, Walker A mutant K179A; MBP is followed by a tev site; no cleavage step is described in the methods; also called NLRP10 K179A; K179A mutant
For B2, the binding result in series [2] was “binds”.

For orientation: stoichiometry N means the number of molecules, sites or subunits per partner or assembly.
